Experimental data: PMC3651781

T1: His-Dis3l2 D389N (mouse, UniProt Q8CI75 1-870, D389N)
T1 sequence: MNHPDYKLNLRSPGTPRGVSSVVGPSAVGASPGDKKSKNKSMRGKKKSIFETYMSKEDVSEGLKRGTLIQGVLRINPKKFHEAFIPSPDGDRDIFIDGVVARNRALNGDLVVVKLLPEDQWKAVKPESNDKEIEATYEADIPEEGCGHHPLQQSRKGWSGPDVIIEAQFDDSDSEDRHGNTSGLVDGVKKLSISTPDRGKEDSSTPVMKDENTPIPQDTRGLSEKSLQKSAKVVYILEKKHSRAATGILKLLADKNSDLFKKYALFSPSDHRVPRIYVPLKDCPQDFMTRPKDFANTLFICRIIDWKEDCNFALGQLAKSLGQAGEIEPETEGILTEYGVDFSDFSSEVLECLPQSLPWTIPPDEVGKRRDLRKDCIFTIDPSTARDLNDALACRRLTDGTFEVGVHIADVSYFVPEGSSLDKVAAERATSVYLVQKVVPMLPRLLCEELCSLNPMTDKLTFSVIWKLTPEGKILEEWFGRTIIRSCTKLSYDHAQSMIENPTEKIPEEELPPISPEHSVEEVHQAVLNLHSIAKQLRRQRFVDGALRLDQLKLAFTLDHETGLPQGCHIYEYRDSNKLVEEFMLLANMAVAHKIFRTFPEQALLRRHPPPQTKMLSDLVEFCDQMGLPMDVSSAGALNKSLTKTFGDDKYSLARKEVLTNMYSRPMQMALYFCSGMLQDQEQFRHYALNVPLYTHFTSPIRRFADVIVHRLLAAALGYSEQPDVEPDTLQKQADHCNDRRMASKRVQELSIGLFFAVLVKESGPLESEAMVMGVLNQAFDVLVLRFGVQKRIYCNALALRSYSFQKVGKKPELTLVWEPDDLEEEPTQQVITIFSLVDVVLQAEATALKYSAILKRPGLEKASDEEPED

B1: mmu-pre-let-7a-1 (structured_RNA)
RNA: UGAGGUAGUAGGUUGUAUAGUUUUAGGGUCACACCCACCACUGGGAGAUAACUAUACAAUCUACUGUCUUUCC
B2: mmu-pre-let-7a-1+14U (structured_RNA)
RNA: UGAGGUAGUAGGUUGUAUAGUUUUAGGGUCACACCCACCACUGGGAGAUAACUAUACAAUCUACUGUCUUUCCUUUUUUUUUUUUUU

Biological target: T1, His-Dis3l2 D389N
Assay: EMSA

Binder | binding result
B1 | no binding
B2 | binds
